Reference: patent publication US11130803B2, “Isoform-selective TGFβ1 inhibitors and use thereof” (Scholar Rock, Inc., priority 2018, dated 2021)
Read-outs that look alike come from different tables or passages of the source.

How the values were obtained:
non-diseased rat BAL = conditions: cited from earlier work
[1] = system: mouse models of injury, Marfan's syndrome, and muscular dystrophy; conditions: in vivo; cited from earlier work
human patients = conditions: in vivo; cited from earlier work
[2] = human, in vivo; cited from earlier work
[3] = system: matrix-associated (LTBP1/LTBP3) and cell-associated (GARP/LRRC33) proTGFβ1 complexes; assay: Octet: average KD and fold bias, matrix- vs cell-associated complexes; format: binding, human; conditions: average KD of (B) and (C), read-out: (D) ECM AVRG
[4] = system: matrix-associated (LTBP1/LTBP3) and cell-associated (GARP/LRRC33) proTGFβ1 complexes; assay: as above; format: binding, human
From the text: Column (A) of the table lists monoclonal antibodies with discrete amino acid sequences. […] Columns (B), (D), (E) and (F) provide affinities of each of the listed antibodies, measured in KD. […] Average KD values of (B) and (C) are shown in the corresponding column (D), which collectively represents affinities of the antibodies to ECM- or matrix-associated proTGFβ1 complexes. Similarly, Average KD values of (E) and (F) are shown in the corresponding column (G), which collectively represents affinities of the antibodies to cell-surface or cell-associated proTGFβ1 complexes. Finally, relative ratios between the average KD values from columns (D) and (G) are expressed as “fold bias” in column (H). […] This is one way of quantitatively representing and comparing inherent bias of antibodies to their target complexes.
Average KD values between the two matrix-associated and cell-associated complexes are calculated, respectively (see columns (D) and (G)). These average KD values can then be used to ask whether bias in binding activities exists between complexes associated with matrix vs. complexes associated with cell surface (e.g., immune cells). Bias may be expressed as “fold-difference” in the average KD values, as illustrated in Table 8.

[5] = target: T1, recombinant human GARP-proTGFβ1 complex (Homo sapiens, UniProt P01137); assay: Octet (Biolayer Interferometry) in vitro kinetic binding; conditions: in M
T1 construct: made in house
T1 sequence (P01137 30-390): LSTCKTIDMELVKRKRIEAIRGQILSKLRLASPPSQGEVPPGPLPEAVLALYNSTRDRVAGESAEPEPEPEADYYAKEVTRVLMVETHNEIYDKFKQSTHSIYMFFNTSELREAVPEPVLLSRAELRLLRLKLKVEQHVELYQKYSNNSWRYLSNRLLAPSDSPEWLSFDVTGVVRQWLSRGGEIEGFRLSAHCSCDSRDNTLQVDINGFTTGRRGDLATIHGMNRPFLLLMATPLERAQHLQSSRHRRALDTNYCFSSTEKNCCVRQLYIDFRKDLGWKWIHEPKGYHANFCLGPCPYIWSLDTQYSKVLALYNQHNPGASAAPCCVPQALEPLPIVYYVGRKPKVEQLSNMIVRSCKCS
T1 sequence (Q14392 20-627 partner limits assumed): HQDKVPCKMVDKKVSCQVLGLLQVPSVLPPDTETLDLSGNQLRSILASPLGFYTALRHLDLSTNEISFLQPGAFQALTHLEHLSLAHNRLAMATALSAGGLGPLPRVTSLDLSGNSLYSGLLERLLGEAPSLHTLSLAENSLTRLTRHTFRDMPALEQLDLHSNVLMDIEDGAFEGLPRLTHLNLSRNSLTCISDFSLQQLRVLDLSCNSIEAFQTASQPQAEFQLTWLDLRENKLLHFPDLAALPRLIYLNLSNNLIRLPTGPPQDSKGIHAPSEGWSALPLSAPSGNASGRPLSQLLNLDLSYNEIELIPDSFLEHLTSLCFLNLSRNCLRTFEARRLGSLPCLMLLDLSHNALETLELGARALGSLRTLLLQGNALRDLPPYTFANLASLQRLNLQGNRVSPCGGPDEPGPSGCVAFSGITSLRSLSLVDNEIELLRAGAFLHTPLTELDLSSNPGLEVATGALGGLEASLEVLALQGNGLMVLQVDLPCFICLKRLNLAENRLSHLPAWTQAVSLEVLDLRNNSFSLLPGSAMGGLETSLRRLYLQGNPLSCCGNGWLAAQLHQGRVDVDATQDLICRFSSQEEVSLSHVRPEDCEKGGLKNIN
From the text: (§1) Biolayer Interferometry (BLI):BLI is a label-free technology for optically measuring biomolecular interactions, e.g., between a ligand immobilized on the biosensor tip surface and an analyte in solution. BLI provides the ability to monitor binding specificity, rates of association and dissociation, or concentration, with precision and accuracy. BLI platform instruments are commercially available, for example, from ForteBio and are commonly referred to as the Octet® System.
(§2) BLI-based binding assays are widely used in the art for measuring affinities and kinetics of antibodies to antigens. It is a label-free technology in which biomolecular interactions are analyzed on the basis of optical interference. One of the proteins, for example, an antibody being tested, can be immobilized on the biosensor tip. When the other protein in solution, for example, an antigen, becomes bound to the immobilized antibody, it causes a shift in the interference pattern, which can be measured in real-time. This allows the monitoring of binding specificity, rates of association and dissociation, as well as concentration dependency. […] Due to its ease of use and fast results, BLI-based assays such as the Octet® system (available from ForteBio/Molecular Devices, Fremont Calif.), are particularly convenient when used as an initial screening method to identify and separate a pool of “binders” from a pool of “non-binders” or “weak binders” in the screening process.
(§3) Table 8 below provides non-limiting examples of high-affinity, context-independent proTGFβ1 antibodies encompassed by the present invention. The table provides representative results from in vitro binding assays, as measured by Octet®.
(§4) Column (A) of the table lists monoclonal antibodies with discrete amino acid sequences. […] Columns (B), (D), (E) and (F) provide affinities of each of the listed antibodies, measured in KD. […] Average KD values of (B) and (C) are shown in the corresponding column (D), which collectively represents affinities of the antibodies to ECM- or matrix-associated proTGFβ1 complexes. Similarly, Average KD values of (E) and (F) are shown in the corresponding column (G), which collectively represents affinities of the antibodies to cell-surface or cell-associated proTGFβ1 complexes. Finally, relative ratios between the average KD values from columns (D) and (G) are expressed as “fold bias” in column (H). Thus, the greater the number of column (H) is, the greater bias exists for the particular antibody, when comparing binding preferences of the antibody for matrix-associated complexes and cell-surface complexes. This is one way of quantitatively representing and comparing inherent bias of antibodies to their target complexes. Such analyses may be useful in guiding the selection process for a candidate antibody for particular therapeutic use.
(§5) In some embodiments, the binding affinity of an antibody, or antigen binding portion thereof, to an antigen (e.g., protein complex), such as presenting molecule-proTGFβ1 complexes, is determined using an Octet assay. In some embodiments, an Octet assay is an assay that determines one or more a kinetic parameters indicative of binding between an antibody and antigen. In some embodiments, an Octet® system (ForteBio, Menlo Park, Calif.) is used to determine the binding affinity of an antibody, or antigen binding portion thereof, to presenting molecule-proTGFβ1 complexes. For example, binding affinities of antibodies may be determined using the fortéBio Octet QKe dip and read label free assay system utilizing bio-layer interferometry. In some embodiments, antigens are immobilized to biosensors (e.g., streptavidin-coated biosensors) and the antibodies and complexes (e.g., biotinylated presenting molecule-proTGFβ1 complexes) are presented in solution at high concentration ([…]) to measure binding interactions. […]

[6] = target: T2, recombinant human LTBP1-proTGFβ1 complex (Homo sapiens, UniProt P01137); assay: as above; conditions: in M
T2 construct: made in house; host or cells: Expi293F cells, transient co-transfection
T2 sequence (P01137 30-390): as the sequence (P01137 30-390) above
T2 sequence (Q14766 873-1507 partner): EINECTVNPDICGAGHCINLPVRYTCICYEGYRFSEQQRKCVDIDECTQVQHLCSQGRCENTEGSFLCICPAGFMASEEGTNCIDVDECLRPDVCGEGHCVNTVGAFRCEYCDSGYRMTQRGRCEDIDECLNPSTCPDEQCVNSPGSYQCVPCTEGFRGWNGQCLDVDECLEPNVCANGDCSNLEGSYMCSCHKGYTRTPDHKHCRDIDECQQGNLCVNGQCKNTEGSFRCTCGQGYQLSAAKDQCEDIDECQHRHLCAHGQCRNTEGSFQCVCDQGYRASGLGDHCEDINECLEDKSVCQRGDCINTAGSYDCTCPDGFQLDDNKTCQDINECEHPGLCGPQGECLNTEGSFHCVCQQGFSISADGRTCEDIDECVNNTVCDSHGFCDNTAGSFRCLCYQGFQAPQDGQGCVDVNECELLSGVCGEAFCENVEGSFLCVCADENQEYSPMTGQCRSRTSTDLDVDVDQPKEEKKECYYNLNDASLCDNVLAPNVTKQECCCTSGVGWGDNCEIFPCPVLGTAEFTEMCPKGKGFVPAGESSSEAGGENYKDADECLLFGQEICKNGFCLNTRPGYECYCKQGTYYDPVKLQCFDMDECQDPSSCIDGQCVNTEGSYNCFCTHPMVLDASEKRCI
From the text: as §1, §2, §3, §4, §5

[7] = target: T3, recombinant human LTBP3-proTGFβ1 complex (Homo sapiens, UniProt P01137); assay: as above; conditions: in M
T3 construct: made in house; host or cells: Expi293F cells, transient co-transfection
T3 sequence (P01137 30-390): as the sequence (P01137 30-390) above
T3 sequence (Q9NS15 866-1039 partner limits assumed): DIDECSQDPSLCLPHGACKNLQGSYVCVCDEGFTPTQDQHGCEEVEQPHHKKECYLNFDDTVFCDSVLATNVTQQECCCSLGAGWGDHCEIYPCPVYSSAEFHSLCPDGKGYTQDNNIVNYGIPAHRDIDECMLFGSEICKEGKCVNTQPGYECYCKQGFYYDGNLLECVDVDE
From the text: as §1, §2, §3, §4, §5

[8] = target: T4, recombinant human LRRC33-proTGFβ1 complex (Homo sapiens, UniProt P01137); assay: as above; conditions: in M
T4 construct: made in house
T4 sequence (P01137 30-390): as the sequence (P01137 30-390) above
T4 sequence (Q86YC3 19-650 partner limits assumed): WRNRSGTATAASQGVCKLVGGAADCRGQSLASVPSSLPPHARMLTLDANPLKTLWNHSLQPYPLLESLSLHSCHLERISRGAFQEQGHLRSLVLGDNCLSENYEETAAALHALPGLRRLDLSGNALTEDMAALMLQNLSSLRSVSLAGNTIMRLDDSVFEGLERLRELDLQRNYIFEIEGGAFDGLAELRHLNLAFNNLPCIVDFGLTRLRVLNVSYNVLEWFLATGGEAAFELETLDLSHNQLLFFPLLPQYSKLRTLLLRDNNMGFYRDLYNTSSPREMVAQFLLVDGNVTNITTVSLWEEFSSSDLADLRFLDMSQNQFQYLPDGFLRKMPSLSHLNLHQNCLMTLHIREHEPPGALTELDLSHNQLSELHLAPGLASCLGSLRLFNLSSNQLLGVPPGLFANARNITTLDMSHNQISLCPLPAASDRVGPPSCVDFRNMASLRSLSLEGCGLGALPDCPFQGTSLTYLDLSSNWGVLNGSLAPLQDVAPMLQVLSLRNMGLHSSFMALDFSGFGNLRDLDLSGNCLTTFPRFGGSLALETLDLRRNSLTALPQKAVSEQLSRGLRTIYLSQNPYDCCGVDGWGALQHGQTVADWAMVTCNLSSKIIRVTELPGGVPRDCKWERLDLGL
From the text: as §1, §2, §3, §4, §5

[9] = system: MBT2 tumors, intratumoral immune cells; assay: MBT2 tumor immune contexture (flow cytometry, IHC, qPCR); conditions: mouse, in vivo
From the text: To study the immune effects of anti-PD-1 or AB6-mIgG1 treatment as single agents or in combination, MBT-2 tumors were harvested from mice 10 days after treatment initiation and then subjected to immunohistochemical and flow cytometry analyses of select immune cell markers. […] The relevance of this increase in Treg cells is unclear given the significant anti-tumor effects observed with combination treatment. […] This appears to be due to selective reduction in CD11b+CD206+ and CD11b+Gr1+ subpopulations, which correspond to immunosuppressive M2-like macrophages and myeloid-derived suppressor cells (MDSC), respectively. Collectively, the representation of these two populations of cells is reduced from an average of 47% of the CD45+ cell population to 14% after combination treatment (FIG. 34B).
Each study group contained 12 mice with MBT2 tumors as described herein. Ab6-treatment group received the antibody weekly, on day 1 and day 8, at 10 mg/kg. […]
Tumor-associated immune cell subsets were also analyzed by tumor flow cytometry in MBT-2 tumors. […] Flow cytometry was performed on a Attune NxT (ThermoFisher) and analyzed with FlowJo (BD Bioscience).
For immunohistochemical analysis, tumors from six animals were cut in halves and fixed. […] FIG. 36E provides the quantitation of the IHC data, shown as % of CD8-positive cells of total nuclei. […]

mdx mice = conditions: cited from earlier work

c1ccc(-c2nn3c(c2-c2ccnc4cc(OCCN5CCOCC5)ccc24)CCC3)nc1 [LY2109761]
TGFβ downstream tonic signaling (non-diseased rat BAL): inhibit TGFβ downstream tonic signaling

CCCCc1nc(Cl)c(CO)n1Cc1ccc(-c2ccccc2-c2nn[nH]n2)cc1 [losartan]
muscle pathology and fibrosis [1]: effective in improving muscle pathology and reducing fibrosis

Cc1ccc(C(=O)Nc2ccc(S(=O)(=O)O)c3cc(S(=O)(=O)O)cc(S(=O)(=O)O)c23)cc1NC(=O)c1cccc(NC(=O)Nc2cccc(C(=O)Nc3cc(C(=O)Nc4ccc(S(=O)(=O)O)c5cc(S(=O)(=O)O)cc(S(=O)(=O)O)c45)ccc3C)c2)c1 [suramin]
muscle pathology and fibrosis [1]: effective in improving muscle pathology and reducing fibrosis

GC1008: human analog of 1D11; pan-TGFβ antibody
previously reported adverse events (human patients): leukocytosis (grade 3), fatigue (grade 3), hypoxia (grade 3), asystole (grade 5), leukopenia (grade 1), recurrent, transient, tender erythematous, nodular skin lesions, suppurative dermatitis, and herpes zoster | Exposure: DN Cmax [2]: DN Cmax ~(350 ng/mL)mg (ng/mL)mg | Exposure: Half life [2]: Half life: 21.7 d

B1: Ab18: monoclonal antibody; VH SEQ ID NO: 249, VL SEQ ID NO: 241 (antibody, V domains shown)
VH: QVQLVESGGGVVQPGRSLRLSCAASGFTFSDYAMVWVRQAPGKGLEWVSAISGSGAATYFADSVKGRFTISRDNSKNTLYLQMNSLRAEDTAVYYCATVSSGHWDFDYWGQGTLVTVSS
VL: DIQLTQSPSSLSASVGDRVTITCRASQSISSYLNWYQQKPGKAPKLLIYAASNLQSGVPSRFSGSGSGTDFTLTISSLQPEDFATYYCQQTYTVPLTFGGGTKVEIK
Kd [3]: 0.284 nM | Kd ([4]; average KD of (E) and (F), cell-associated complexes, read-out: (G) Cell AVRG): 6.26 nM | (H) G/D (fold bias) ([4]; ratio of average KD cell-associated / matrix-associated): 22.00 fold | (E) hGARP, Cell-associated proTGFb1 (KD) [5]: 1.15E−08 | (B) hLTBP1, Matrix-associated proTGFb1 (KD) [6]: 3.12E−10 | (C) hLTBP3, Matrix-associated proTGFb1 (KD) [7]: 2.57E−10 | (F) hLRRC33, Cell-associated proTGFb1 (KD) [8]: 1.02E−09

B2: Ab6-mIgG1: chimeric antibody with the human V domains of Ab6 fused to mouse IgG1/kappa constant domains (protein)
heavy chain: EVQLVESGGGLVQPGGSLRLSCTASGFTFSSFSMDWVRQAPGKGLEWVSYISPSADTIYYADSVKGRFTISRDNAKNTLYLQMNSLRAEDTAVYYCARGVLDYGDMLMPWGQGTLVTVSS
light chain: DIQMTQSPSSLSASVGDRVTITCQASQDITNYLNWYQQKPGKAPKLLIYDASNLETGVPSRFSGSGSGTDFTFTISSLQPEDIATYYCQQADNHPPWTFGGGTKVEIK
phospho-Smad3 staining at tumor vascular endothelium (IHC) [9]: much diminished

B3: decorin: proteoglycan abundant in skeletal muscle that inhibits TGFβ activity (protein, UniProt P07585 31-359, looked up)
Decorin: DEASGIGPEVPDDRDFEPSLGPVCPFRCQCHLRVVQCSDLGLDKVPKDLPPDTTLLDLQNNKITEIKDGDFKNLKNLHALILVNNKISKVSPGAFTPLVKLERLYLSKNQLKELPEKMPKTLQELRAHENEITKVRKVTFNGLNQMIVIELGTNPLKSSGIENGAFQGMKKLSYIRIADTNITSIPQGLPPSLTELHLDGNKISRVDAASLKGLNNLAKLGLSFNSISAVDNGSLANTPHLRELHLDNNKLTRVPGGLAEHKYIQVVYLHNNNISVVGSSDFCPPGHNTKKASYSGVSLFSNPVQYWEIQPSTFRCVYVRSAIQLGNYK
muscle fibrosis (mdx mice): decreases muscle fibrosis
